Source: PMC12193700, “Hyperthermophilic L-Asparaginase from Thermococcus sibiricus and Its Double Mutant with Increased Activity: Insights into Substrate Specificity and Structure” (International Journal of Molecular Sciences, 2025)
Where a chain is given by its changes, count along the chain named. Names and notes keep the numbering of the source.

B1: TsAI (Thermococcus sibiricus MM 739) (protein)
chain: MKKLLIIGTGGTIASAKTEQGYKSVLKIDEILKLAKIKLENGYKIDSTNIMNIDSTLIHPEDWEIIAKEVFKALDDYDGIIITHGTDTLAYTASMLSFMIKNPNKPIVLTGSMLPITENGSDAPRNIRTAIKFAMEDVAGVFVAFMDKIMLGCRTSKVRTLGLNAFMSINYPDVAYVKGEKILYNIPKEKFQPNGSPELDTKYEPRVVVLRVTPGLGGEIIDAVLDAGYKGIVLEGYGAGGLPYRKSNLLSKIKEITPKIPVIMTTQALYDGVDMRKYEVGRKALETGIIPAKDMTKEATITKLMWALGHTKDVEKIREIMHTNYVNEIKS
notes: full-length, 331 residues, homodimer
B2: TsAI (Thermococcus sibiricus MM 739; D54G/T56Q) (protein)
chain: B1 chain with D54G, T56Q
notes: as for B1

What was measured:
Experiment in all cases: direct Nesslerization (ammonia release)
TsAI = target: T1, TsAI (Thermococcus sibiricus, UniProt C6A532, D54G/T56Q); type: biochemical; conditions: 90 °C, 0.05 M Tris-HCl pH 9.0; 0.25–20 mM substrate
T1 construct: gene TSIB_1676; full-length, 331 residues, homodimer
Text: (§1) direct Nesslerization (ammonia release) on TsAI

[1] = substrate: NC(=O)C[C@H](N)C(=O)O; type: biochemical, Thermococcus sibiricus; conditions: 90 °C, 0.05 M Tris-HCl pH 9.0, 0.25–20 mM substrate
Text: as §1

[2] = substrate: NC(=O)CC[C@H](N)C(=O)O; type: biochemical, Thermococcus sibiricus; conditions: 90 °C, 0.05 M Tris-HCl pH 9.0, 0.25–30 mM substrate
Text: as §1

[3] = substrate: NC(=O)CC[C@@H](N)C(=O)O; type: biochemical, Thermococcus sibiricus; conditions: 90 °C, 0.05 M Tris-HCl pH 9.0, 0.25–40 mM substrate
Text: as §1

[4] = substrate: NC(=O)C[C@@H](N)C(=O)O; type: biochemical, Thermococcus sibiricus; conditions: 90 °C, 0.05 M Tris-HCl pH 9.0, 0.25–30 mM substrate
Text: as §1

T1 sequence (C6A532 entry or part of it D54G/T56Q): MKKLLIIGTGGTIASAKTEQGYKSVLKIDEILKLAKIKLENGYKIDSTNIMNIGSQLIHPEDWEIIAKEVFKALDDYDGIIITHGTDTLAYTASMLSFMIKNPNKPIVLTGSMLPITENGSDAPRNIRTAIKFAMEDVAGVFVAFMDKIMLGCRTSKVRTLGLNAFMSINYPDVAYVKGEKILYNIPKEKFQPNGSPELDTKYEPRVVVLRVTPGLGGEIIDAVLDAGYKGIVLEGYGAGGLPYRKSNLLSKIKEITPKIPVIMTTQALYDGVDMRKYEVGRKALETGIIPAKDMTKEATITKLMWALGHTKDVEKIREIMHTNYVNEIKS

Km (TsAI) | Molecule | Km [1] | Vmax [1] | Km [2] | Vmax [2] | Km [3] | Vmax [3] | Km [4] | Vmax [4]
6.03 ± 0.15 mM | NC(=O)C[C@H](N)C(=O)O [L-asparagine] | – | – | – | – | – | – | – | –
– | B1 | 3.10 ± 0.15 mM | 4020 µM/min | 11.09 ± 0.25 mM | 280 µM/min | 13.86 ± 0.86 mM | 180 µM/min | 8.63 ± 0.48 mM | 660 µM/min
– | B2 | – | – | 11.41 ± 0.27 mM | 250 µM/min | 14.40 ± 1.60 mM | 180 µM/min | 9.18 ± 0.86 mM | 590 µM/min
